Test results as given in US20180105596A1 (ELSALYS BIOTECH, published 2018).
Substitutions are numbered along the chain they refer to.

T1: recombinant His-Strep tagged human Tyro3 extracellular domain (human, UniProt Q06418 41-429)
T1 construct: also called hTyro3 ECD; full Tyro3 ECD
T1 sequence: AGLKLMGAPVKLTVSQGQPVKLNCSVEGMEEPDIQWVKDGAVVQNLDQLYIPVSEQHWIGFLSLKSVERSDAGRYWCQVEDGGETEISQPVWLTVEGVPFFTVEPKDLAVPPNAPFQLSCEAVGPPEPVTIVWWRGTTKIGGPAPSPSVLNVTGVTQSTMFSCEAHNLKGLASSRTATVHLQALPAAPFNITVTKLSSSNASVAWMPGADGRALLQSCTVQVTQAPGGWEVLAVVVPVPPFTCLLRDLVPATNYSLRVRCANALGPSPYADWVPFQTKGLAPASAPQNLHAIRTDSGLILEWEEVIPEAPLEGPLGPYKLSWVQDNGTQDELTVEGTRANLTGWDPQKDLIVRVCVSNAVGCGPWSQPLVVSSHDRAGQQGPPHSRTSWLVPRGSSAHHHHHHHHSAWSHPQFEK

B1: anti-Tyro3 scFv 2717 (scFv, V domains shown)
VH: EVQLVQSGADVKKPGASLTISCQASGYTFTDYWISWVRQKPGKGLEWMGEIFLPPSTTVYGPSFQGHVTISADRSTATAYLQWRSLEASDTAMYYCVRQTRLTSGGTIPEYYQHWGPGTLVTVSS
VL: SYELTQPPSVSVSPGQTARITCSGDALPKKYAYWYQQKSGQAPVLVIYEDNKRGSGIPERFSGSSSGTMATLTISGAQVEDEADYYCYSKSPEGNYMVFGGGTKLTVL
notes: Tested as a single-chain Fv made in E. coli
B2: anti-Tyro3 scFv 2709 (scFv, V domains shown)
VH: B1 VH with E50A, F52S, L53R, P54N, P55G, V59Y, Q99S, T100G, R101G, T122P
VL: B1 VL with N51K, G54V, K90L, S91A, P92V, E93D, M97G
notes: as for B1

What was measured:
[1] = biological target: T1, recombinant His-Strep tagged human …; assay: sandwich ELISA, Strep-tagged hTyro3 ECD captured on StrepMAB plate, scFv 3-fold from 10 µg/mL, anti-FLAG-HRP
Protocol: A double sandwich ELISA was developed. This assay consisted in measuring the binding of the anti-Tyro3 antibodies to be tested on immobilized strep-tagged entire human Tyro3 ECD captured directly on ELISA plate pre-coated with an anti-strep mAb (StrepMAB-Immo coated microplates from IBA biotech). Briefly, the 96 wells of StrepMAB-Immo coated microplate were washed three times with 300 μL of the PBS Tween 0.2% (referred as ELISA washing solution). The capture of an excess of purified strep tagged hTyro3 ECD protein was achieved by a one hour incubation at room temperature. In these experiments, 3 μg of purified protein diluted in PBS, BSA 1% (referred as ELISA diluent solution) were immobilized per well. The wells were washed three times with 300 μL of the washing solution. The non-specific binding sites on the well surface were blocked during 60 min at room temperature with 200 μL/well of blocking solution (PBS, BSA 3%). The wells were washed five times with 300 μL of the washing solution. Then, 100 μl (in duplicates) of the different concentrations of anti-Tyro3 antibodies to be tested diluted in ELISA diluent solution, were added per well and allowed to incubate during 1 hour at room temperature. An Irrelevant control IgG2656 was also added in this experiment. For anti-Tyro3 antibodies in the ScFv format, experiments were performed with 6 concentrations in duplicates (FIG. 3A). […]

[2] = biological target: T1, recombinant His-Strep tagged human …; assay: sandwich ELISA, Strep-tagged fragment captured on StrepMAB plate, scFv 10 µg/mL (Table 17), anti-FLAG-HRP

Binder | binding result [1] | binding result [2]
B1 | binds | –
B2 | – | binds
